Measurements as given in patent publication US20220259289A1 (Janssen / Centocor, published 2022).

How the values were obtained:
Test in all cases: ELISA, bacterial lysate on plate-bound antigen, luminescence
[1] = target: unrelated Fc-fused recombinant protein (negative control)
[2] = target: T1, recombinant biotinylated human CD137 protein (Fc-fusion protein, R&D Systems 838-4B) (human, UniProt Q07011 24-186, biotinylated (site not stated))
T1 construct: Bought Fc fusion; The ELISA used the same antigen as the panning; also called CD137-Fc; biotinylated CD137; not shown: Fc part of the bought fusion protein
Description: (§1) Streptavidin-coated Maxisorp plates (Nunc catalog 436110) were blocked for 1 h in Starting Block T20 (Pierce) and then coated with biotinylated CD137 (using same antigen as in panning) or negative controls (an unrelated Fc-fused recombinant protein and human serum albumin) for 1 h. Plates were rinsed with TBST and diluted lysate was applied to plates for 1 h. Following additional rinses, wells were treated with HRP-conjugated anti-Centyrin antibody (PAB25) for 1 h and then assayed with POD (Roche catalog 11582950001).

[3] = target: T2, human serum albumin (human, UniProt P02768 25-609)
T2 construct: Negative control antigen of the screening ELISA; also called HSA
Description: as §1

T2 sequence (P02768 25-609 limits assumed): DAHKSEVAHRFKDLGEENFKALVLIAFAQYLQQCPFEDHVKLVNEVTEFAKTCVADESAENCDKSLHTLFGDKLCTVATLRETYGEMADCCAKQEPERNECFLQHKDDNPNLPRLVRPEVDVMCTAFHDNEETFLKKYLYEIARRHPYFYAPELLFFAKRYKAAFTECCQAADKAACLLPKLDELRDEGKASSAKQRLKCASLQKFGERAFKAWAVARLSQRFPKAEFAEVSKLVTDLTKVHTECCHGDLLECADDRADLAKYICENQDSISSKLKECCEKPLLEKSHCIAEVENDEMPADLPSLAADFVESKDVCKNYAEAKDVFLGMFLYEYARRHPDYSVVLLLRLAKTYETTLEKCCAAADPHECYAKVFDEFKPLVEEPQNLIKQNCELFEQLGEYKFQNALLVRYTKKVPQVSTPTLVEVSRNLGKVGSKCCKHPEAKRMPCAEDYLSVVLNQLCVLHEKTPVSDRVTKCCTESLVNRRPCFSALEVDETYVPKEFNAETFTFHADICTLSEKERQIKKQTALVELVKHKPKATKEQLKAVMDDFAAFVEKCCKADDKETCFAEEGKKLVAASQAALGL

B1: ISOP120GR5P1A10 (designed binder, not shown: small tags and cut ends)
chain: LPAPKNLVVSRVTEDSARLSWTAPDAAFDSFEIPYIEVETIGEAIWLHVPGSERSYDLTGLKPGTEYSVGINGVKGGHTSNPLSARFTT
notes: FN3 domain (Centyrin); tested as E. coli lysate
ELISA Fc Control (RLU) [1]: 400 RLU
ELISA CD137-Fc (RLU) [2]: 627000 RLU
ELISA HSA (RLU) [3]: 400 RLU

B2: ISOP120GR5P1C10 (designed binder, not shown: small tags and cut ends)
chain: LPAPKNLVVSRVTEDSARLSWTAPDGAFDSFEIPYIEVETIGEAIWLHVPGSERSYDLTGLKPGTEYSVGINGVKGGHTSNPLSARFTT
notes: as for B1
ELISA Fc Control (RLU) [1]: 240 RLU
ELISA CD137-Fc (RLU) [2]: 502000 RLU
ELISA HSA (RLU) [3]: 480 RLU

B3: ISOP120GR5P1H11 (designed binder, not shown: small tags and cut ends)
chain: LPAPKNLVVSRVTEDSARLSWTAPDAAFDSFYIAYWEYWGNGEAIGLIVPGSERSYDLTGLKPGTEYHVHIVGVKGGAGSVPLWANFTT
notes: as for B1
ELISA Fc Control (RLU) [1]: 640 RLU
ELISA CD137-Fc (RLU) [2]: 1.31e+06 RLU
ELISA HSA (RLU) [3]: 320 RLU

B4: ISOP120HR5P1A6 (designed binder, not shown: small tags and cut ends)
chain: LPAPKNLVVSRVTEDSARLSWTAPDGAFDSFEIYYLEGGRGEAIVLTVPGSERSYDLTGLKPGTEYLVTIYGIKCGWASNPLSAIFTT
notes: as for B1
ELISA Fc Control (RLU) [1]: 640 RLU
ELISA CD137-Fc (RLU) [2]: 1.29e+06 RLU
ELISA HSA (RLU) [3]: 400 RLU

B5: ISOP120GR5P1B11 (designed binder, not shown: small tags and cut ends)
chain: LPAPKNLVVSRVTEDSARLSWTAPDAAFDSFNIKYWEANLYGEAIVLTVPGSERSYGLTGLKPGTEYRVHIRGVKGGINSFPLVAVFTT
notes: as for B1
ELISA Fc Control (RLU) [1]: 320 RLU
ELISA CD137-Fc (RLU) [2]: 875000 RLU
ELISA HSA (RLU) [3]: 160 RLU

B6: ISOP120AR5P1H3 (designed binder, not shown: small tags and cut ends)
chain: LPAPKNLVVSRVTEDSARLSWKWISHEPLEFDSFLIQYQESEKVGEAIVLTVPGSERSYDLTGLKPGTEYTVSIYGVGRHYTVYDSNPLSAIFTT
notes: as for B1
ELISA Fc Control (RLU) [1]: 400 RLU
ELISA CD137-Fc (RLU) [2]: 769000 RLU
ELISA HSA (RLU) [3]: 480 RLU

B7: ISOP120AR5P1D2 (designed binder, not shown: small tags and cut ends)
chain: LPAPKNLVVSRVTEDSARLSWDFAYFKFDSFLIQYQESEKVGEAIVLTVPGSERSYDLTGLKPGTEYTVSIYGVGRFYTVYYSNPLSAIFTT
notes: as for B1
ELISA Fc Control (RLU) [1]: 640 RLU
ELISA CD137-Fc (RLU) [2]: 908000 RLU
ELISA HSA (RLU) [3]: 640 RLU

B8: ISOP120AR5P1C5 (designed binder, not shown: small tags and cut ends)
chain: LPAPKNLVVSRVTEDSARLSWTLPNIHFDSFLIQYQESEKVGEAIVLTVPGSERSYDLTGLKPGTEYTVSIYGVGRHYTVYDSNPLSAIFTT
notes: as for B1
ELISA Fc Control (RLU) [1]: 320 RLU
ELISA CD137-Fc (RLU) [2]: 425000 RLU
ELISA HSA (RLU) [3]: 160 RLU

B9: ISOP120AR5P1C4 (designed binder, not shown: small tags and cut ends)
chain: LPAPKNLVVSRVTEDSARLSWAFQWHIFDSFLIQYQESEKVGEAIVLTVPGSERSYDLTGLKPGTEYTVSIYGVGQPYTVYDSNPLSAIFTT
notes: as for B1
ELISA Fc Control (RLU) [1]: 320 RLU
ELISA CD137-Fc (RLU) [2]: 708000 RLU
ELISA HSA (RLU) [3]: 240 RLU

B10: ISOP120GR5P1A11 (designed binder, not shown: small tags and cut ends)
chain: LPAPKNLVVSRVTEDSARLSWTAPDAAFDSFGIPYWEWTTEGEAIQLIVPGSERSYDLTGLKPATEYHVHIVGVKGGSFSEPLPADFTT
notes: as for B1
ELISA Fc Control (RLU) [1]: 480 RLU
ELISA CD137-Fc (RLU) [2]: 1.05e+06 RLU
ELISA HSA (RLU) [3]: 320 RLU

B11: ISOP120HR5P1H7 (designed binder, not shown: small tags and cut ends)
chain: LPAPKNLVVSRVTEDSARLSWTAPDAAFDSFDIYYGEPGNLGEAIVLTVPGSERSYDLTGLKPGTEYLVTIYGVKGGDYSSPLSAIFTT
notes: as for B1
ELISA Fc Control (RLU) [1]: 640 RLU
ELISA CD137-Fc (RLU) [2]: 1.53e+06 RLU
ELISA HSA (RLU) [3]: 480 RLU

B12: ISOP120ER5P1A11 (designed binder, not shown: small tags and cut ends)
chain: LPAPKNLVVSRVTEDSARLSWTAPDAAFDSFEIYYKELRAEGEAIVLTVPGSERSYDLTGLKPGTEYLVTIYGVKGGSVSIPLSAIFTT
notes: as for B1
ELISA Fc Control (RLU) [1]: 320 RLU
ELISA CD137-Fc (RLU) [2]: 1.14e+06 RLU
ELISA HSA (RLU) [3]: 320 RLU

B13: ISOP120FR5P1A11 (designed binder, not shown: small tags and cut ends)
chain: LPAPKNLVVSRVTEDSARLSWTAPDAAFDSFTIYYFENENGGEAIVLTVPGSERSYDLTGLKPGTEYLVTIYGVKGGHWSRPLSAIFTT
notes: as for B1
ELISA Fc Control (RLU) [1]: 480 RLU
ELISA CD137-Fc (RLU) [2]: 920000 RLU
ELISA HSA (RLU) [3]: 480 RLU

B14: ISOP120HR5P1B4 (designed binder, not shown: small tags and cut ends)
chain: LPAPKNLVVSRVTEDSARLSWTAPDAAFDSFSIYYGEYYNLGEAIVLTVPGSERSYDLTGLKPGTEYVVTIYGVKGGGYSNPLSAIFTT
notes: as for B1
ELISA Fc Control (RLU) [1]: 320 RLU
ELISA CD137-Fc (RLU) [2]: 1.19e+06 RLU
ELISA HSA (RLU) [3]: 320 RLU

B15: ISOP120FR5P1F1 (designed binder, not shown: small tags and cut ends)
chain: LPAPKNLVVSRVTEDSARLSWTAPDAAFDSFTIYYFENENGGEAIVLTVPGSERSYDLTGLKPGTEYLVTIYGVKGCDWSDPLSAIFTT
notes: as for B1
ELISA Fc Control (RLU) [1]: 480 RLU
ELISA CD137-Fc (RLU) [2]: 1.23e+06 RLU
ELISA HSA (RLU) [3]: 640 RLU

B16: ISOP120HR5P1D9 (designed binder, not shown: small tags and cut ends)
chain: LPAPKNLVVSRVTEDSARLSWTAPDAAFDSFDIYYRELDFQGEAIVLTVPGSERSYDLTGLKPGTEYLVIIYGVKGGSYSYTLSAIFTT
notes: as for B1
ELISA Fc Control (RLU) [1]: 480 RLU
ELISA CD137-Fc (RLU) [2]: 405000 RLU
ELISA HSA (RLU) [3]: 400 RLU

B17: ISOP120HR5P1D7 (designed binder, not shown: small tags and cut ends)
chain: LPAPKNLVVSRVTEDSARLSWTAPDAAFDSFDIYYLESWTRGEAIVLTVPGSERSYDLTGLKPGTEYLVTIYGVKGGSYSRPLSAIFTT
notes: as for B1
ELISA Fc Control (RLU) [1]: 320 RLU
ELISA CD137-Fc (RLU) [2]: 1.1e+06 RLU
ELISA HSA (RLU) [3]: 320 RLU

B18: ISOP120ER5P1A8 (designed binder, not shown: small tags and cut ends)
chain: LPAPKNLVVSRVTEDSARLSWTAPDAAFDSFDIYYFEHPVGGEAIVLTVPGSERSYDLTGLKPGTEYLVTIYGVKGGYLSMPLSAIFTT
notes: as for B1
ELISA Fc Control (RLU) [1]: 400 RLU
ELISA CD137-Fc (RLU) [2]: 1.9e+06 RLU
ELISA HSA (RLU) [3]: 320 RLU

B19: ISOP120ER5P1B6 (designed binder, not shown: small tags and cut ends)
chain: LPAPKNLVVSRVTEDSARLSWTAPDAAFDSFDIYYGEHWKLGEAIVLTVQGSERSYDLTGLKPGTEYLVTIYGVKGGQWSFPLSAIFTT
notes: as for B1
ELISA Fc Control (RLU) [1]: 160 RLU
ELISA CD137-Fc (RLU) [2]: 1.35e+06 RLU
ELISA HSA (RLU) [3]: 400 RLU

B20: ISOP120ER5P1H6 (designed binder, not shown: small tags and cut ends)
chain: LPAPKNLVVSRVTEDSARLSWTAPDAAFDSFSIYYGEWHALGEAIVLTVPGSERSYDLTGLKPGTEYVVTIYGVKGGTYSLPLSAIFTT
notes: as for B1
ELISA Fc Control (RLU) [1]: 320 RLU
ELISA CD137-Fc (RLU) [2]: 589000 RLU
ELISA HSA (RLU) [3]: 480 RLU

B21: ISOP120ER5P1C6 (designed binder, not shown: small tags and cut ends)
chain: LPAPKNLVVSRVTEDSARLSWTAPDAAFDSFSIYYGEWHALGEAIVLTVPGSERSYDLTGLKPGTEYVVTIYGVKGGTYSLPLSAISTT
notes: as for B1
ELISA Fc Control (RLU) [1]: 320 RLU
ELISA CD137-Fc (RLU) [2]: 495000 RLU
ELISA HSA (RLU) [3]: 400 RLU

B22: ISOP120HR5P1A7 (designed binder, not shown: small tags and cut ends)
chain: LPAPKNLVVSRVTEDSARLSWTAPDAAFDSFEIYYAEPRYYGEAIVLTVPGSERSYDLTGLKPGTEYTVTIYGVKGGYYSSPLSAIFTT
notes: as for B1
ELISA Fc Control (RLU) [1]: 400 RLU
ELISA CD137-Fc (RLU) [2]: 987000 RLU
ELISA HSA (RLU) [3]: 480 RLU

B23: ISOP120FR5P1C2 (designed binder, not shown: small tags and cut ends)
chain: LPAPKNLVVSRVTEDSARLSWTAPDAAFDSFDINYFEQPKGGEAIVLTVPGSERSYDLTGLKPGTEYLVTIYGVKGGPYSPPLSAIFTT
notes: as for B1
ELISA Fc Control (RLU) [1]: 240 RLU
ELISA CD137-Fc (RLU) [2]: 389000 RLU
ELISA HSA (RLU) [3]: 400 RLU

B24: ISOP120ER5P1B4 (designed binder, not shown: small tags and cut ends)
chain: LPAPKNLVVSRVTEDSARLSWTAPDAAFDSFSILYGEPPALGEAIVLTVPGSERSYDLTGLKPGTEYWVTIYGVKGGVFSHPLSAIFTT
notes: as for B1
ELISA Fc Control (RLU) [1]: 400 RLU
ELISA CD137-Fc (RLU) [2]: 499000 RLU
ELISA HSA (RLU) [3]: 400 RLU

B25: ISOP120FR5P1H5 (designed binder, not shown: small tags and cut ends)
chain: LPAPKNLVVSRVTEDSARLSWTAPDAAFDSLQIYYFEWVVGGEAIVLTVPGSERSYDLTGLKLGTEYLVTIYGVKGGNFSDPLSAIFTT
notes: as for B1
ELISA Fc Control (RLU) [1]: 400 RLU
ELISA CD137-Fc (RLU) [2]: 460000 RLU
ELISA HSA (RLU) [3]: 560 RLU

B26: ISOP120HR5P1A3 (designed binder, not shown: small tags and cut ends)
chain: LPAPKNLVVSRVTEDSARLSWTAPDAAFDSFEIYYAEFGYYGEAIVLTVPGSERSYDLTGLKPGTEYTVTIYGVKGGWYSTPLSAIFTT
notes: as for B1
ELISA Fc Control (RLU) [1]: 560 RLU
ELISA CD137-Fc (RLU) [2]: 1.08e+06 RLU
ELISA HSA (RLU) [3]: 240 RLU
